Data published in article PMC9860126, “Mechanistic insights into the nickel-dependent allosteric response of the Helicobacter pylori NikR transcription factor”.

Tests used:
Assay in all cases: fluorescence anisotropy; Ni(II)-bound; FA: 5 nM DNA, 20 mM Tris pH 7.6, 100 mM NaCl, 3 mM MgSO4, temperature not stated (Ni loading 1.2 eq NiSO4 per monomer at RT). EMSA: 20 mM Tris pH 7.5, 100 mM KCl, 3 mM MgCl2, 0.1% IGEPAL, 5% glycerol, 0.1 mg/ml herring sperm DNA, RT; gel with 800 uM NiSO4 at 4 C
Details in all cases: protein: recombinant; tags: none stated; chain copies: 4; label: fluorescein on internal thymine (T14 of strand 1); blunt
HpNikR K64A = HpNikR K64A (Helicobacter pylori G27, UniProt A1YSQ9 1-148, K64A)
HpNikR K140A = HpNikR K140A (Helicobacter pylori G27, UniProt A1YSQ9 1-148, K140A)
HpNikR Δ3aa = HpNikR Δ3aa (Helicobacter pylori G27, UniProt A1YSQ9 1-58+62-148, internal_change)

B1: ureA promoter 32 bp (FA) (dsDNA)
DNA 1: ATATAACACTAATTCATTTTAAATAATAATTA
DNA 2: TAATTATTATTTAAAATGAATTAGTGTTATAT
HpNikR K64A
  Kd: 22 ± 2.2 nM
HpNikR K140A
  Kd: 63 ± 5.6 nM
HpNikR Δ3aa
  Kd: 4.4 ± 1.3 nM
